From patent publication US20110191904A1
Where two headings read alike, the source gives them in different places. Each block holds one molecule with its values, some of them ahead of it.

Tests used:
Assay in all cases: cell-based or functional assay
[1] = biological target: T1, Arabidopsis FAD2 (At3g12120) (Arabidopsis thaliana) (UniProt P46313)
T1 sequence (looked up): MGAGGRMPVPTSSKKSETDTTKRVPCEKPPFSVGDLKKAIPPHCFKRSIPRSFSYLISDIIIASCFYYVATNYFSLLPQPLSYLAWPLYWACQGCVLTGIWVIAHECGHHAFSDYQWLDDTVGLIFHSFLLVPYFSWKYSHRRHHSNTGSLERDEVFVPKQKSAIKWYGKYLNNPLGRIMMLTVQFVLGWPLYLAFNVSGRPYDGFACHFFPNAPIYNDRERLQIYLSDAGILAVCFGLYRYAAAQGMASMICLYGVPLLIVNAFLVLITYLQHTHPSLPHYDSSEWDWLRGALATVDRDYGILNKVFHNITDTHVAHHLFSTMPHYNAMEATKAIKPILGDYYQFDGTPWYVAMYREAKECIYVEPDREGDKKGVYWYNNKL

[2] = biological target: T2, Arabidopsis FAD3 (At2g29980) (Arabidopsis thaliana) (UniProt P48623)
T2 sequence (looked up): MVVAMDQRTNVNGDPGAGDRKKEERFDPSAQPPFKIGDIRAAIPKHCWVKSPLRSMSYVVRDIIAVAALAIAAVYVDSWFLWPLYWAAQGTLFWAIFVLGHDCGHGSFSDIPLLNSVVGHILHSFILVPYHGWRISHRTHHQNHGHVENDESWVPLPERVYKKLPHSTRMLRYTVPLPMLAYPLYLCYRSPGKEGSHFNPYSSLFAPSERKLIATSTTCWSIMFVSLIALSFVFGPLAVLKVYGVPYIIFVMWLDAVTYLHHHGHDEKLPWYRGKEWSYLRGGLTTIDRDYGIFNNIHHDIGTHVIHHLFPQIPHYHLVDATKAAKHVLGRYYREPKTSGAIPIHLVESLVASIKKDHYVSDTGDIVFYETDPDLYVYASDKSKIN

[3] = biological target: T2, Arabidopsis FAD3 (At2g29980) (Arabidopsis thaliana); remark: listed apart in the source
[4] = biological target: T1, Arabidopsis FAD2 (At3g12120) (Arabidopsis thaliana); remark: listed apart in the source

Molecule: Arabidopsis cytochrome b5 Cb5-B (At5g48810) (from UniProt Q9ZWT2 1-140)
16:2 content of cb5 mutant yeast co-expressing both, 15 C (GC-FID) (mol percentage of total fatty acids) [1]: 1.3
16:2 content of cb5 mutant yeast co-expressing both, 28 C (GC-FID) (mol percentage of total fatty acids) [1]: 1.2
18:2 content of cb5 mutant yeast co-expressing both, 15 C (GC-FID) (mol percentage of total fatty acids) [1]: 7.4
18:2 content of cb5 mutant yeast co-expressing both, 28 C (GC-FID) (mol percentage of total fatty acids) [1]: 6
18:3 content of cb5 mutant yeast co-expressing both, 15 C, 18:2 fed (GC-FID) (mol percentage of total fatty acids) [2]: 11.8
18:3 content of cb5 mutant yeast co-expressing both, 28 C, 18:2 fed (GC-FID) (mol percentage of total fatty acids) [2]: 8.2

B2: Arabidopsis cytochrome b5 Cb5-C (At2g46650) (protein, Arabidopsis thaliana, UniProt Q9ZNV4 1-132, looked up)
chain: MANLISFHDVAKHKCKNDCWILIHGKVYDISTFMDEHPGGDNVLLAVTGKDASIDFEDVNHSKDAKELMKKYCIGDVDQSTVPVTQQYIPPWEKESTAAETTKEESGKKLLIYLIPLLILGVAFALRFYNNK
16:2 content of cb5 mutant yeast co-expressing both, 15 C (GC-FID) (mol percentage of total fatty acids) [4]: 1.2
16:2 content of cb5 mutant yeast co-expressing both, 28 C (GC-FID) (mol percentage of total fatty acids) [4]: 0.9
18:2 content of cb5 mutant yeast co-expressing both, 15 C (GC-FID) (mol percentage of total fatty acids) [4]: 7.2
18:2 content of cb5 mutant yeast co-expressing both, 28 C (GC-FID) (mol percentage of total fatty acids) [4]: 6.4

Now from value to molecule:

18:3 content of cb5 mutant yeast co-expressing both, 15 C, 18:2 fed (GC-FID) (mol percentage of total fatty acids) [3]: 3.8
18:3 content of cb5 mutant yeast co-expressing both, 28 C, 18:2 fed (GC-FID) (mol percentage of total fatty acids) [3]: 3.9
B1: soybean (Glycine max) cytochrome b5 GmCb5-C2 (protein)
chain: MGSKTKTFTFEEVAKHNHRKDCWIIVKGKVYDVTPFLDDHPGGDEVLVTATEKDATTDFEDIGHSDSATQMMEKYFVGEVDTNTLPAQVTSNNSVRQPTQAPPAYNNQSSGFVVKMLQYIVPLLILAFAFGLQYYGKKNKSTESEN

18:3 content of cb5 mutant yeast co-expressing both, 15 C, 18:2 fed (GC-FID) (mol percentage of total fatty acids) [3]: 2
18:3 content of cb5 mutant yeast co-expressing both, 28 C, 18:2 fed (GC-FID) (mol percentage of total fatty acids) [3]: 2.6
B3: soybean (Glycine max) cytochrome b5 GmCb5-C3 (protein)
chain: MASNPKTLTFEEVAKHNNKKDCWIIINGKVYDITPFLDEHPGGDEVLLTSTGKDATIDFEDVGHSDSAIEMMEKYFIGKVDTSTLPPKVSHSLPQPTQTHGAGNQSSGFVVKILQFLLPLLILGLAFALQYYGQKKHASTS

18:3 content of cb5 mutant yeast co-expressing both, 15 C, 18:2 fed (GC-FID) (mol percentage of total fatty acids) [3]: 12.6
18:3 content of cb5 mutant yeast co-expressing both, 28 C, 18:2 fed (GC-FID) (mol percentage of total fatty acids) [3]: 8.2
B4: Arabidopsis cytochrome b5 Cb5-E (At2g32720) (protein, Arabidopsis thaliana, UniProt O48845 1-134, looked up)
chain: MGDEAKIFTLSEVSEHNQAHDCWIVINGKVYNVTKFLEDHPGGDDVLLSSTGKDATDDFEDVGHSESAREMMEQYYVGEIDPTTIPKKVKYTPPKQPHYNQDKTSEFIIKLLQFLVPLAILGLAVGIRIYTKSG
